Experimental data taken from paper PMC6861513, “Insight into the dimer dissociation process of the Chromobacterium violaceum (S)-selective amine transaminase” (Scientific Reports, 2019).

Target: the molecule itself
Experiment: crystal structure; PMP·Cv-ATA; holo-Cv-ATA crystals grown by sitting drop in 100 mM HEPES pH 7.5, 350 mM NaCl, 22.5% PEG 4000, 0.1 mM PLP, cryoprotected with 20 mM 1-(S)-phenylethylamine; space group P1; 1.67 Å

B1: Chromobacterium violaceum (S)-selective amine transaminase, wild type (enzyme)
chain: MQKQRTTSQWRELDAAHHLHPFTDTASLNQAGARVMTRGEGVYLWDSEGNKIIDGMAGLWCVNVGYGRKDFAEAARRQMEELPFYNTFFKTTHPAVVELSSLLAEVTPAGFDRVFYTNSGSESVDTMIRMVRRYWDVQGKPEKKTLIGRWNGYHGSTIGGASLGGMKYMHEQGDLPIPGMAHIEQPWWYKHGKDMTPDEFGVVAARWLEEKILEIGADKVAAFVGEPIQGAGGVIVPPATYWPEIERICRKYDVLLVADEVICGFGRTGEWFGHQHFGFQPDLFTAAKGLSSGYLPIGAVFVGKRVAEGLIAGGDFNHGFTYSGHPVCAAVAHANVAALRDEGIVQRVKDDIGPYMQKRWRETFSRFEHVDDVRGVGMVQAFTLVKNKAKRELFPDFGEIGTLCRDIFFRNNLIMRACGDHIVSAPPLVMTRAEVDEMLAVAERCLEEFEQTLKARGLA
notes: omega-transaminase / (S)-selective amine transaminase of Chromobacterium violaceum, GenBank WP_011135573, in pET28a(+); No tag cleavage is described; also called Cv-ATA; Cv-TA; source: E. coli BL21(DE3), purified (HisTrap FF crude, gel filtration on Superdex 200)
Q: Does B1 bind?
A: binds
